In assay [1] the target is Ac-SLP-1, saposin-like protein from the dog hookworm Ancylostoma caninum (Ancylostoma caninum). Description: native gel or EMSA; native gel of purified Ac-SLP-1; migrates at 20 kDa under native conditions, at smaller sizes with SDS. (In general: Mobility shift assays separate free from complexed probe on a gel.)
The target is the same in assay [2]. The assay is described as follows: SEC-MALS; Superose-12 column; samples injected at 5–10 mg mL^−1; 100 mM NaCl, 20 mM HEPES (pH 7.5) or 100 mM Na-citrate (pH 5.0); same result at both pH.

Usually stoichiometry N stands for the number of molecules, sites or subunits per partner or assembly. On to “Ac-SLP-1, saposin-like protein from the dog hookworm Ancylostoma caninum (natural protein)”, for which the stoichiometry N in assay [1] and in assay [2] was 2 throughout.

The values are drawn from article PMC3184995.
